Data from patent US20260265379A1.

B1: bsAb031 (bispecific antibody)
heavy: not shown
light: EIVLTQSPATLSLSPGERATLSCRASKGVSTSGYSYLHWYQQKPGQAPRLLIYLASYLESGVPARFSGSGSGTDFTLTISSLEPEDFAVYYCQHSRDLPLTFGGGTKVEIKRTVAAPSVFIFPPSDEQLKSGTASVVCLLNNFYPREAKVQWKVDNALQSGNSQESVTEQDSKDSTYSLSSTLTLSKADYEKHKVYACEVTHQGLSSPVTKSFNRGEC
B2: bsAb021 (bispecific antibody)
heavy: QVQLVQSGAEVKKPGASVKLSCKASGYIFTRYYMYWVKQRPGQGLEWIGEINPNNGGTKFNEKFKNRATLTVDKSISTAYMELSRLRSDDTAVYYCSREDDYDGTPFAMDYWGQGTLVTVSSGGGGSGGGGSGGGGSGGGGSDIQMTQSPSSLSASVGDRVTITCHASQNINVWLSWYQQKPGKAPKLLIYKASNLHTGVPSRFTGSGSGTDFTFTISSLQPEDIATYYCQQGQTYPYTFGQGTKLEIKGGGGSGGGGSGGGGSGGGGSQVQLVQSGVEVKKPGASVKVSCKASGYTFTNYYMYWVRQAPGQGLEWMGGINPSNGGTNFNEKFKNRVTLTTDSSTTTAYMELKSLQFDDTAVYYCARRDYRFDMGFDYWGQGTTVTVSSASTKGPSVFPLAPSSKSTSGGTAALGCLVKDYFPEPVTVSWNSGALTSGVHTFPAVLQSSGLYSLSSVVTVPSSSLGTQTYICNVNHKPSNTKVDKRVEPKSCDKTHTCPPCPAPEFEGGPSVFLFPPKPKDTLMISRTPEVTCVVVDVSHEDPEVKFNWYVDGVEVHNAKTKPREEQYNSTYRVVSVLTVLHQDWLNGKEYKCKVSNKALPASIEKTISKAKGQPREPQVYTLPPSREEMTKNQVSLTCLVKGFYPSDIAVEWESNGQPENNYKTTPPVLDSDGSFFLYSKLTVDKSRWQQGNVFSCSVMHEALHNHYTQKSLSLSPG
light: B1 light
B3: bsAb032 (bispecific antibody)
heavy: not shown
light: B1 light
B4: bsAb002 (bispecific antibody)
heavy: QVQLVQSGVEVKKPGASVKVSCKASGYTFTNYYMYWVRQAPGQGLEWMGGINPSNGGTNFNEKFKNRVTLTTDSSTTTAYMELKSLQFDDTAVYYCARRDYRFDMGFDYWGQGTTVTVSSASTKGPSVFPLAPSSKSTSGGTAALGCLVKDYFPEPVTVSWNSGALTSGVHTFPAVLQSSGLYSLSSVVTVPSSSLGTQTYICNVNHKPSNTKVDKRVEPKSCDKTHTCPPCPAPEFEGGPSVFLFPPKPKDTLMISRTPEVTCVVVDVSHEDPEVKFNWYVDGVEVHNAKTKPREEQYNSTYRVVSVLTVLHQDWLNGKEYKCKVSNKALPASIEKTISKAKGQPREPQVYTLPPSREEMTKNQVSLTCLVKGFYPSDIAVEWESNGQPENNYKTTPPVLDSDGSFFLYSKLTVDKSRWQQGNVFSCSVMHEALHNHYTQKSLSLSPGGGGGSGGGGSGGGGSGGGGSQVQLVQSGAEVKKPGASVKLSCKASGYIFTRYYMYWVKQRPGQGLEWIGEINPNNGGTKFNEKFKNRATLTVDKSISTAYMELSRLRSDDTAVYYCSREDDYDGTPFAMDYWGQGTLVTVSSGGGGSGGGGSGGGGSGGGGSDIQMTQSPSSLSASVGDRVTITCHASQNINVWLSWYQQKPGKAPKLLIYKASNLHTGVPSRFTGSGSGTDFTFTISSLQPEDIATYYCQQGQTYPYTFGQGTKLEIK
light: B1 light
B5: bsAb006 (bispecific antibody)
heavy: QVQLVQSGVEVKKPGASVKVSCKASGYTFTNYYMYWVRQAPGQGLEWMGGINPSNGGTNFNEKFKNRVTLTTDSSTTTAYMELKSLQFDDTAVYYCARRDYRFDMGFDYWGQGTTVTVSSASTKGPSVFPLAPSSKSTSGGTAALGCLVKDYFPEPVTVSWNSGALTSGVHTFPAVLQSSGLYSLSSVVTVPSSSLGTQTYICNVNHKPSNTKVDKRVEPKSCDKTHTCPPCPAPEFEGGPSVFLFPPKPKDTLMISRTPEVTCVVVDVSHEDPEVKFNWYVDGVEVHNAKTKPREEQYNSTYRVVSVLTVLHQDWLNGKEYKCKVSNKALPASIEKTISKAKGQPREPQVYTLPPSREEMTKNQVSLTCLVKGFYPSDIAVEWESNGQPENNYKTTPPVLDSDGSFFLYSKLTVDKSRWQQGNVFSCSVMHEALHNHYTQKSLSLSPGGGGGSGGGGSGGGGSGGGGSDIQMTQSPSSLSASVGDRVTITCHASQNINVWLSWYQQKPGKAPKLLIYKASNLHTGVPSRFTGSGSGTDFTFTISSLQPEDIATYYCQQGQTYPYTFGQGTKLEIKGGGGSGGGGSGGGGSGGGGSQVQLVQSGAEVKKPGASVKLSCKASGYIFTRYYMYWVKQRPGQGLEWIGEINPNNGGTKFNEKFKNRATLTVDKSISTAYMELSRLRSDDTAVYYCSREDDYDGTPFAMDYWGQGTLVTVSS
light: B1 light
B6: bsAb056 (bispecific antibody, not shown: a dimerising Fc or GST; small tags and cut ends)
heavy 1: GGGGSGGGGSGGGGSGGGGSQVQLVQSGVEVKKPGASVKVSCKASGYTFTNYYMYWVRQAPGQGLEWMGGINPSNGGTNFNEKFKNRVTLTTDSSTTTAYMELKSLQFDDTAVYYCARRDYRFDMGFDYWGQGTTVTVSSGGGGSGGGGSGGGGSGGGGSEIVLTQSPATLSLSPGERATLSCRASKGVSTSGYSYLHWYQQKPGQAPRLLIYLASYLESGVPARFSGSGSGTDFTLTISSLEPEDFAVYYCQHSRDLPLTFGGGTKVEIK
heavy 2: QVQLVQSGAEVKKPGASVKLSCKASGYIFTRYYMYWVKQRPGQGLEWIGEINPNNGGTKFNEKFKNRATLTVDKSISTAYMELSRLRSDDTAVYYCSREDDYDGTPFAMDYWGQGTLVTVSS
light: not shown
B7: bsAb061 (bispecific antibody)
heavy: QVQLVQSGAEVKKPGASVKLSCKASGYIFTRYYMYWVKQRPGQGLEWIGEINPNNGGTKFNEKFKNRATLTVDKSISTAYMELSRLRSDDTAVYYCSREDDYDGTPFAMDYWGQGTLVTVSSASTKGPSVFPLAPSSKSTSGGTAALGCLVKDYFPEPVTVSWNSGALTSGVHTFPAVLQSSGLYSLSSVVTVPSSSLGTQTYICNVNHKPSNTKVDKRVEPKSCDKTHTCPPCPAPEFEGGPSVFLFPPKPKDTLMISRTPEVTCVVVDVSHEDPEVKFNWYVDGVEVHNAKTKPREEQYNSTYRVVSVLTVLHQDWLNGKEYKCKVSNKALPASIEKTISKAKGQPREPQVYTLPPSREEMTKNQVSLTCLVKGFYPSDIAVEWESNGQPENNYKTTPPVLDSDGSFFLYSKLTVDKSRWQQGNVFSCSVMHEALHNHYTQKSLSLSPG
light: not shown
B8: bsAb062 (bispecific antibody)
heavy: B7 heavy
light: not shown
B9: bsAb068 (bispecific antibody)
heavy: QVQLVQSGVEVKKPGASVKVSCKASGYTFTNYYMYWVRQAPGQGLEWMGGINPSNGGTNFNEKFKNRVTLTTDSSTTTAYMELKSLQFDDTAVYYCARRDYRFDMGFDYWGQGTTVTVSSASTKGPSVFPLAPSSKSTSGGTAALGCLVKDYFPEPVTVSWNSGALTSGVHTFPAVLQSSGLYSLSSVVTVPSSSLGTQTYICNVNHKPSNTKVDKRVEPKSCDKTHTCPPCPAPEFEGGPSVFLFPPKPKDTLMISRTPEVTCVVVDVSHEDPEVKFNWYVDGVEVHNAKTKPREEQYNSTYRVVSVLTVLHQDWLNGKEYKCKVSNKALPASIEKTISKAKGQPREPQVYTLPPSREEMTKNQVSLTCLVKGFYPSDIAVEWESNGQPENNYKTTPPVLDSDGSFFLYSKLTVDKSRWQQGNVFSCSVMHEALHNHYTQKSLSLSPG
light: not shown
B10: bsAb009 (bispecific antibody)
heavy: B9 heavy
light: EIVLTQSPATLSLSPGERATLSCRASKGVSTSGYSYLHWYQQKPGQAPRLLIYLASYLESGVPARFSGSGSGTDFTLTISSLEPEDFAVYYCQHSRDLPLTFGGGTKVEIKRTVAAPSVFIFPPSDEQLKSGTASVVCLLNNFYPREAKVQWKVDNALQSGNSQESVTEQDSKDSTYSLSSTLTLSKADYEKHKVYACEVTHQGLSSPVTKSFNRGECGGGGSGGGGSGGGGSGGGGSQVQLVQSGAEVKKPGASVKLSCKASGYIFTRYYMYWVKQRPGQGLEWIGEINPNNGGTKFNEKFKNRATLTVDKSISTAYMELSRLRSDDTAVYYCSREDDYDGTPFAMDYWGQGTLVTVSSGGGGSGGGGSGGGGSGGGGSDIQMTQSPSSLSASVGDRVTITCHASQNINVWLSWYQQKPGKAPKLLIYKASNLHTGVPSRFTGSGSGTDFTFTISSLQPEDIATYYCQQGQTYPYTFGQGTKLEIK

Each binder was assayed against BTN3A expressed at the cell surface (human), O00481 (assay: cell-based or functional assay).
Sequence of BTN3A expressed at the cell surface (human), O00481 (O00481 30-513): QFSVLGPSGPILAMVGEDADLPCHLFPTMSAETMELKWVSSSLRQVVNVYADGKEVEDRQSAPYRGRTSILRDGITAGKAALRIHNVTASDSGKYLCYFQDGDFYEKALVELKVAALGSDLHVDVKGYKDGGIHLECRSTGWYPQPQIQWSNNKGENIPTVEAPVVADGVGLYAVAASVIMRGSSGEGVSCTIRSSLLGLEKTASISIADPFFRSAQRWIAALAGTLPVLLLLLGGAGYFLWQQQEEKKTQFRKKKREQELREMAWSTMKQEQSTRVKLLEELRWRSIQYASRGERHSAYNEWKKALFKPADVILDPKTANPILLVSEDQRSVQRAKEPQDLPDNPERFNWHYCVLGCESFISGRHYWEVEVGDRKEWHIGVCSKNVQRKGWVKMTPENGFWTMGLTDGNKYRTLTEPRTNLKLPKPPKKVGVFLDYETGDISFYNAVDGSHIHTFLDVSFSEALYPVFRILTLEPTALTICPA

Row | Binder | Jurkat-Vy9Vo2 TCR MOP activation at 0.5 nM (fold-change to medium) | Jurkat-Vy9Vo2 TCR MOP activation at 5 nM (fold-change to medium)
1 | B1 | 1.8 | 2.2
2 | B2 | 1.6 | 1.5
3 | B3 | 0.9 | 1
4 | B4 | 1 | 1
5 | B5 | 1 | 1
6 | B6 | 7 | 10
7 | B7 | 3.7 | 5.4
8 | B8 | 4.3 | 5.8
9 | B9 | 1.4 | 1.6
10 | B10 | 1 | 0.8
